Assay: yeast display, Sf9 membrane polyspecificity reagent, FACS + sequencing; frameworks hold sequencing errors
Method in brief: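 Synthetic nanobody libraries on Saccharomyces cerevisiae BJ5465 were galactose-induced for 36–48 hours, stained 1 hour at 4 °C with 10% biotinylated, detergent-solubilized Sf9 membrane reagent and enriched on streptavidin microbeads. FACS then separated cells into low and high (top ~1%) gates by anti-HA (expression) and streptavidin (reagent binding) fluorescence. Genes were colony-PCR amplified, MiSeq 2 × 250 sequenced and CDR-length filtered. A clone's polyreactivity label is that of its gate of origin.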

Sequence: QVQLVESGGGLVQAGGSLRLSCAASGRTFKFYAMGWYRQAPGKERELVATISSRGGNTFYADSVKGRFTISRDNAKNTVYLQMNSLIPEDTAVYYCAARRGVRKYPSAGYEYWGQGTQVTVSS
- polyreactivity (PSR sort gate): high polyreactivity

Sequence: QVQLVESGGGLVQAGGSLRLSCAASGRTFKKYAMGWYRQAPGKERELVAAITSSGGSTYYADSVKGRFTISRDNAKNTVYLQMNSLKPEDTAVYYCNTVYRHRQRAKYNYWGQGTQVTVSS
- polyreactivity (PSR sort gate): high polyreactivity

Sequence: QVQLVESGGGLVQAGGSLRLSCAASGRTFKKYAMGWYRQAPGKERELVAGITGSGGSTYYADSVKGRFTISRDNAKNTVYLQMNSLKPEDTAVYYCAAYAYGGWHSQDGGNYWGQGTQVTVSS
- polyreactivity (PSR sort gate): low polyreactivity

Sequence: QVQLVESGGGLVQAGGSLRLSCAASGRTFKKYAMGWYRQAPGKVREFVARITYSAGSTYYADSVKGRFTISRDNAKNTVYLQMNSLKPEDTAVYYCARRYASSGPRWYSRHGEYDYWGQGTQVTVSS
- polyreactivity (PSR sort gate): low polyreactivity

Sequence: QVQLVESGGGLVQAGGSLRLSCAASGRTFKNYAMGWYRQAPGKERELVAAITSGGITNYADSVKGRFTISRDNAKNTVYLQMNSLKPEDTAVYYCNTRRGWRDFDYWGQGTQVTVSS
- polyreactivity (PSR sort gate): low polyreactivity

Sequence: QVQLVESGGGLVQAGGSLRLSCAASGRTFKPYAMGWYRQARGKERELVAAISTRGGSTYYADSVKGRFTISRDNAKNTVYLQMNSLKPEDTAVYYCAATQPGRDYDYWGQGTQVTVSS
- polyreactivity (PSR sort gate): low polyreactivity

Sequence: QVQLVESGGGLVQAGGSLRLSCAASGRTFKRYAMGWYRQAPGKERELVAAITFSGGSTYYADSVKGRFTISRDNAKNTVYLQRNSLKPEDTAVYYCAADGEHYPWYYYWGQGTQVTVSS
- polyreactivity (PSR sort gate): high polyreactivity

Sequence: QVQLVESGGGLVQAGGSLRLSCAASGRTFKRYAMGWYRQAPGKERELVAGISRGGNTNYADSVKGRFTISRDNAKNTVYLQMNSLNPEDTAVYYCNKDYSFEYSLRNRDYWGQGTQVTVSS
- polyreactivity (PSR sort gate): low polyreactivity

Sequence: QVQLVESGGGLVQAGGSLRLSCAASGRTFKSNAMGWYRQAPGKERELVATINYSATSTYYADSVKGSFTISRDNAKNTVYLQMNSLKPEDTAVYYCNVACGYSYRGLDYWGQVTQVTVSS
- polyreactivity (PSR sort gate): high polyreactivity

Sequence: QVQLVESGGGLVQAGGSLRLSCAASGRTFKTYAMAWYRQAPGKERELVAAISRDGRTYYADSVKGRFTISRDNAKNTVYLQMNSLKPEDTAVYYCNKRSYRNGDYWGQGTQVTVSS
- polyreactivity (PSR sort gate): low polyreactivity

Sequence: QVQLVESGGGLVQAGGSLRLSCAASGRTFKTYTMGWYRQEPGKERELVAVISSGGGSTNYADSVKGRFTISRDKAKNTVNLQMNSRKPEDTAVYYCAARKPGRPKYRYDYWGQGSQVTVSS
- polyreactivity (PSR sort gate): low polyreactivity

Sequence: QVQLVESGGGLVQAGGSLRLSCAASGRTFKWYAMGWYRQAPGKERELVAAITTGGNTYYADSVKGRFTISRDNAKNTVYLQMNSLTPEDTAVYYCARVPTQGYNPYEYWGQGTQVTVSS
- polyreactivity (PSR sort gate): low polyreactivity

Sequence: QVQLVESGGGLVQAGGSLRLSCAASGRTFKWYAMGWYRQAPGKERELVAGISRGAGRTYYADSVKWRFTISRDNAKNTFYLEMNSLKPEDTAVYYFAASPVRDGKVIDGRDYWGQGTQVTVSS
- polyreactivity (PSR sort gate): high polyreactivity

Sequence: QVQLVESGGGLVQAGGSLRLSCAASGRTFKYNAMGWYRQAPGKERELVATITRSGGSTYADSVKGRFTISRDNAKNTVYLQMNSLKPEDTAVYYCNLFHVTKDYKTYPQSRYDYWGQGTQVTVSS
- polyreactivity (PSR sort gate): high polyreactivity

Sequence: QVQLVESGGGLVQAGGSLRLSCAASGRTFKYYAMGWYRQAPGKERELVAGISSTGRTNYADSVKGRFTISRDNAKNTVYLQMNSLKPEDTAVYYCNAERKSFGKFDYWGQGTQVTVSS
- polyreactivity (PSR sort gate): high polyreactivity

Sequence: QVQLVESGGGLVQAGGSLRLSCAASGRTFKYYAMGWYRQAPGKERELVATINYSGGGTYYADSVKRRFTSSRDNAKNTVYLQMNSLKPEDTAVYYCAATRYSFGPRRVDYWGQGTQVTVSS
- polyreactivity (PSR sort gate): high polyreactivity

Sequence: QVQLVESGGGLVQAGGSLRLSCAASGRTFKYYTMGWYRQAPGKERELVAAISGSGSRTYYADSVKGRFTISRDNAKNTVYLQMNSLKPEDTAVYYCAARRRISSGYSGPPWIYGYWGQGTQVTVSS
- polyreactivity (PSR sort gate): high polyreactivity

Sequence: QVQLVESGGGLVQAGGSLRLSCAASGRTFKYYTMGWYRQAPGKERELVAGINGGGGSTYYADSVKGRFTISRDNAKNTVYLQMNSMKPEDTAVYYCAVDPFAYFSYWTYDYWGQGTQVTVSS
- polyreactivity (PSR sort gate): high polyreactivity

Sequence: QVQLVESGGGLVQAGGSLRLSCAASGRTFKYYTMGWYRQAPGKERELVATISSSATSTYYADSVKGRFTISRDNAKNTVYLQMNSLKPEDTAVYYCAVERDYGWPIYIRWHFDYWGQGTQVTVSS
- polyreactivity (PSR sort gate): low polyreactivity

Sequence: QVQLVESGGGLVQAGGSLRLSCAASGRTFKYYTMGWYRQAPGKERELVAVIRGTGSTYYADSVKGRFTISRDNAKNTVYLQMNSLKPEDTAVYYCAVQVRRRYNYWGQGTQVTVSS
- polyreactivity (PSR sort gate): high polyreactivity

Sequence: QVQLVESGGGLVQAGGSLRLSCAASGRTFLANAMGWYRQAPGKERELVAAITWSGGRTNYADSVKGRFTISRDNAKNTVYLQMNSLKPEDTAVYYCAADIFYEQVVGGTDVGYHDFDYWGQGTQVTVSS
- polyreactivity (PSR sort gate): low polyreactivity

Sequence: QVQLVESGGGLVQAGGSLRLSCAASGRTFLIYDMGWYRQAPGKVRELVAAIRDRGATTYYADSVKGRFTISRDNAKNTVYLHMNSLKPEDTSVYYCSARNGAYPALKEGDYWGQGTQVTVSS
- polyreactivity (PSR sort gate): high polyreactivity

Sequence: QVQLVESGGGLVQAGGSLRLSCAASGRTFLLYAMGWYRQAPGKERELVAAISIGGGSTRYADSVKGRFTISRDNAKNTVYLQMNSLKPEDTAVYYCAALGRRGGDYWGQGTEVTVSS
- polyreactivity (PSR sort gate): high polyreactivity

Sequence: QVQLVESGGGLVQAGGSLRLSCAASGRTFLLYAMGWYRQAPGKERELVAAISSGGSTYYADSVKGRFTISRDNAKNTVYLQMNSLKPEDTAVYYCNAVYQHLASEYDYWGQGTQVTVSS
- polyreactivity (PSR sort gate): low polyreactivity

Sequence: QVQLVESGGGLVQAGGSLRLSCAASGRTFLPYAMGWYRQAPGKERELVAAITSGGSTSYADSVKGRFTISRDNAKNTVYLQMNSLKPEDSAVYYCAKGYYRFRRFYYGGYYWGQGTQVTVSS
- polyreactivity (PSR sort gate): low polyreactivity

Sequence: QVQLVESGGGLVQAGGSLRLSCAASGRTFLRYAMGWYRQAPGKERELVAAISSRGGTTHYADSVKGRFTISRDNAKNTVYLLMNSLKPEDTAVYYCAAKSFLPYLKFGYWGQGTQVTVSS
- polyreactivity (PSR sort gate): high polyreactivity

Sequence: QVQLVESGGGLVQAGGSLRLSCAASGRTFLRYAMGWYRQAPGKERELVAAISVSGGNTYYADSVKGRFTISRDNAKNTVYLQMKSLKPEDTAVYYCNKARLAAVFSYPYGYWGQGTQVTVSS
- polyreactivity (PSR sort gate): low polyreactivity

Sequence: QVQLVESGGGLVQAGGSLRLSCAASGRTFLRYTMGWYRQAPGKERELVASITRGGSTYYADSVKGRFTISRDNAKNTVYLQMNSLKPEDTAVYYCAVDVYGSHYYTGSLGKPDGYWGQGTQVTVSS
- polyreactivity (PSR sort gate): high polyreactivity

Sequence: QVQLVESGGGLVQAGGSLRLSCAASGRTFLSYAMGWYRPAPGKERELVAAIRWRTGSRTYYADSVKGRFTISRDNAKNKVYLQLNSLKPEDTAVYLCANTYWYPYGYWGQGTQVTLSS
- polyreactivity (PSR sort gate): low polyreactivity

Sequence: QVQLVESGGGLVQAGGSLRLSCAASGRTFLSYTMGWYRQAPGKERELVAAITTSGGSTNYADSVKGRFTISRDNAMNNVYLQMNSLKPEDTAVYYCADEWSVYFNDPRSDYWGQGTQVTVSS
- polyreactivity (PSR sort gate): high polyreactivity

Sequence: QVQLVESGGGLVQAGGSLRLSCAASGRTFLVNAMGWSRQAPGKERELVAAISQRGGSTDYADSVKGRFTISRDNAKNTVYLQMNSLKPEDTAVYYCAVRWGYLYDYWGQGTQVTVSS
- polyreactivity (PSR sort gate): low polyreactivity

Sequence: QVQLVESGGGLVQAGGSLRLSCAASGRTFLVYAMGWYRQAPGKERELVATIRASTGSTYADSVKGRFTISRDNAKNTVYLQMNSLKPEDTAVYYCAASIRTSPYNYDYWGQGTQVTVSS
- polyreactivity (PSR sort gate): high polyreactivity

Sequence: QVQLVESGGGLVQAGGSLRLSCAASGRTFLWNDMGWYRQAPGKERELVAAITGSDGTYADSVKGRFTISRDNAKNTVYLQMNSLKPEDTAVYYCAAETYGYFPWKYDYWGQGTQVTVSS
- polyreactivity (PSR sort gate): low polyreactivity

Sequence: QVQLVESGGGLVQAGGSLRLSCAASGRTFLWYAMGWYRQAPGKERELVAAIRWRGTSTYYADSVKGRFTISRDNAKNTVYLQMNSLKPEDTAVYYCAAKVRSLYWFDYWGQGTQVTVSS
- polyreactivity (PSR sort gate): high polyreactivity

Sequence: QVQLVESGGGLVQAGGSLRLSCAASGRTFLWYAMGWYRQAPGKERELVAAITTAGSTYYADSVKGRFTISRDNAKNTVYLQMNSLKPEDTAVYYCNRLTYAYPPPVLGVGHDSWGQGTQVTVSS
- polyreactivity (PSR sort gate): low polyreactivity

Sequence: QVQLVESGGGLVQAGGSLRLSCAASGRTFLYNAMGWYIQAPGKERELVAAISWNGGRTYYADSVKGRFTISRDNAKNTVYLQMNSLKPEDTAVYYCAKVDQLYNSRYDYWGQGTQVTVSS
- polyreactivity (PSR sort gate): high polyreactivity

Sequence: QVQLVESGGGLVQAGGSLRLSCAASGRTFLYNAMGWYRQAHGKERELVAAIDQSGGSTYYADSVKGRFTISRDNAKNTVYLQMNSLKPEDTAVYYCAAYWEGSWYYKKYYYWGQGTQVTVSS
- polyreactivity (PSR sort gate): high polyreactivity

Sequence: QVQLVESGGGLVQAGGSLRLSCAASGRTFLYNAMGWYRQAPGKERELVAAISFDDGSTYYADSVKGRFTISRDNAKNTVYLQMNSLKPEDTAVYYCAAEYLYVGDSQAYNQYEYWGQGTQVTVSS
- polyreactivity (PSR sort gate): low polyreactivity

Sequence: QVQLVESGGGLVQAGGSLRLSCAASGRTFLYNAMGWYRQAPGKERELVAAISWSGGSTYYADSVKGRFTISRDNAKNTVYLQMIILKPEDTAVYYCAATGRRSGFYYWGQGTQVTVSS
- polyreactivity (PSR sort gate): high polyreactivity

Sequence: QVQLVESGGGLVQAGGSLRLSCAASGRTFLYNAMGWYRQAPGKERELVAGITQSGSSTYYADSVKGRFTISRDNAKNTVYLQMNSLKPEDTAVYYCAKVLYRRGYKFDYWGQGTQVTVSS
- polyreactivity (PSR sort gate): low polyreactivity

Sequence: QVQLVESGGGLVQAGGSLRLSCAASGRTFLYYAMGWDRPAPGKERELVAAITRGGGSTYYADSVKGRFTISRDNAKNTVYLPMNSLKPEDTAVYYCAVEYRVDYYVEYDYWGQGTQVTVSS
- polyreactivity (PSR sort gate): high polyreactivity

Sequence: QVQLVESGGGLVQAGGSLRLSCAASGRTFLYYAMGWYRQAPGKERELVAGITSGGSTNYADSVKGRFTISRDNAKNTVYLQMNSLKPEATAVYYCAVDQGYSRTADVNYDYWGQGTQVTVSS
- polyreactivity (PSR sort gate): low polyreactivity

Sequence: QVQLVESGGGLVQAGGSLRLSCAASGRTFNFNAMGWYRQAPGKERELVATITSRGGSTYADSVKGRFTISRDNAKNTVYLQMNSLKPEDTAVYYCNARTPYIRDYQYWRKYDYWGQGTQVTVSS
- polyreactivity (PSR sort gate): high polyreactivity
